Where a chain is given by its changes, count along the chain named. Names may count otherwise.
B1: XPA23 heavy chain D106A (Fab, V domains shown)
VH: EVQLLESGGGLVQPGGSLRLSCAASGFTFSKYFMFWVRQAPGKGLEWVSVISPSGGMTRYADSVKGRFTISRDNSKNTLYLQMNSLRAEDTAVYYCARVGYGGNSAYWGQGTLVTVSS
VL: DIQMTQSPSSVSASVGDRLTIICRASQDINRWLAWYQQTPGNAPKLLIHSATSLQSGVPSRFSGSGSGTDFTLTINSLQPEDFATYYCQQADSFPLTFGGGTKVEIK
notes: Fab, periplasmic extract; also called C5A D106A
B2: XPA23 heavy chain D106I (Fab, V domains shown)
VH: B1 VH with A106I
VL: B1 VL
notes: Fab, periplasmic extract; also called C5A D106I
B3: XPA23 heavy chain D106L (Fab, V domains shown)
VH: B1 VH with A106L
VL: B1 VL
notes: Fab, periplasmic extract; also called C5A D106L
B4: XPA23 heavy chain D106P (Fab, V domains shown)
VH: B1 VH with A106P
VL: B1 VL
notes: Fab, periplasmic extract; also called C5A D106P
B5: XPA23 heavy chain D106T (Fab, V domains shown)
VH: B1 VH with A106T
VL: B1 VL
notes: Fab, periplasmic extract; also called C5A D106T
B6: XPA23 heavy chain D106V (Fab, V domains shown)
VH: B1 VH with A106V
VL: B1 VL
notes: Fab, periplasmic extract; also called C5A D106V
B7: XPA23 heavy chain G100L (Fab, V domains shown)
VH: B1 VH with G100L, A106D
VL: B1 VL
notes: Fab, periplasmic extract; also called C5A G100L
B8: XPA23 heavy chain G100P (Fab, V domains shown)
VH: B1 VH with G100P, A106D
VL: B1 VL
notes: Fab, periplasmic extract; also called C5A G100P
B9: XPA23 heavy chain G102A (Fab, V domains shown)
VH: B1 VH with G102A, A106D
VL: B1 VL
notes: Fab, periplasmic extract; also called C5A G102A
B10: XPA23 heavy chain G102L (Fab, V domains shown)
VH: B1 VH with G102L, A106D
VL: B1 VL
notes: Fab, periplasmic extract; also called C5A G102L
B11: ING-1 Fab, light chain I35L (Fab, V domains shown)
VH: QIQLVQSGPELKKPGETVKISCKASGYTFTKYGMNWVKQAPGKGLKWMGWINTYTEEPTYGDDFKGRFAFSLETSASTANLQINNLKSEDTATYFCARFGSAVDYWGQGTSVTVSS
VL: DIVMTQAAFSNPVTLGTSGSISCRSSKSLLHSNGLTYLYWYLQKPGQSPQLLIYQMSNLASGVPDRFSSSGSGTDFTLRISRVEAEDVGVYYCAQNLELPRTFGGGTKLEMKR
notes: Fab in periplasmic extract
B12: ING-1 Fab, light chain I35P (Fab, V domains shown)
VH: B11 VH
VL: B11 VL with L35P
notes: Fab in periplasmic extract
B13: ING-1 Fab, light chain K27T (Fab, V domains shown)
VH: B11 VH
VL: B11 VL with K27T, L35I
notes: Fab in periplasmic extract
B14: ING-1 Fab, light chain L29I (Fab, V domains shown)
VH: B11 VH
VL: B11 VL with L29I, L35I
notes: Fab in periplasmic extract
B15: ING-1 Fab, light chain L29P (Fab, V domains shown)
VH: B11 VH
VL: B11 VL with L29P, L35I
notes: Fab in periplasmic extract
B16: ING-1 Fab, light chain L97A (Fab, V domains shown)
VH: B11 VH
VL: B11 VL with L35I, L97A
notes: Fab in periplasmic extract
B17: ING-1 Fab, light chain L97G (Fab, V domains shown)
VH: B11 VH
VL: B11 VL with L35I, L97G
notes: Fab in periplasmic extract
B18: ING-1 Fab, light chain L99G (Fab, V domains shown)
VH: B11 VH
VL: B11 VL with L35I, L99G
notes: Fab in periplasmic extract
B19: ING-1 Fab, light chain L99P (Fab, V domains shown)
VH: B11 VH
VL: B11 VL with L35I, L99P
notes: Fab in periplasmic extract
B20: ING-1 Fab, light chain L99T (Fab, V domains shown)
VH: B11 VH
VL: B11 VL with L35I, L99T
notes: Fab in periplasmic extract
B21: ING-1 Fab, light chain M56G (Fab, V domains shown)
VH: B11 VH
VL: B11 VL with L35I, M56G
notes: Fab in periplasmic extract
B22: ING-1 Fab, light chain M56T (Fab, V domains shown)
VH: B11 VH
VL: B11 VL with L35I, M56T
notes: Fab in periplasmic extract
B23: ING-1 Fab, light chain M56V (Fab, V domains shown)
VH: B11 VH
VL: B11 VL with L35I, M56V
notes: Fab in periplasmic extract
B24: ING-1 Fab, light chain N33T (Fab, V domains shown)
VH: B11 VH
VL: B11 VL with N33T, L35I
notes: Fab in periplasmic extract
B25: ING-1 Fab, light chain N33V (Fab, V domains shown)
VH: B11 VH
VL: B11 VL with N33V, L35I
notes: Fab in periplasmic extract
B26: ING-1 Fab, light chain P100A (Fab, V domains shown)
VH: B11 VH
VL: B11 VL with L35I, P100A
notes: Fab in periplasmic extract
B27: ING-1 Fab, light chain P100L (Fab, V domains shown)
VH: B11 VH
VL: B11 VL with L35I, P100L
notes: Fab in periplasmic extract
B28: ING-1 Fab, light chain P100T (Fab, V domains shown)
VH: B11 VH
VL: B11 VL with L35I, P100T
notes: Fab in periplasmic extract
B29: ING-1 Fab, light chain Q55G (Fab, V domains shown)
VH: B11 VH
VL: B11 VL with L35I, Q55G
notes: Fab in periplasmic extract
B30: ING-1 Fab, light chain R101A (Fab, V domains shown)
VH: B11 VH
VL: B11 VL with L35I, R101A
notes: Fab in periplasmic extract
B31: ING-1 Fab, light chain R101G (Fab, V domains shown)
VH: B11 VH
VL: B11 VL with L35I, R101G
notes: Fab in periplasmic extract
B32: ING-1 Fab, light chain R101I (Fab, V domains shown)
VH: B11 VH
VL: B11 VL with L35I, R101I
notes: Fab in periplasmic extract
B33: ING-1 Fab, light chain R101P (Fab, V domains shown)
VH: B11 VH
VL: B11 VL with L35I, R101P
notes: Fab in periplasmic extract
B34: ING-1 Fab, light chain R101T (Fab, V domains shown)
VH: B11 VH
VL: B11 VL with L35I, R101T
notes: Fab in periplasmic extract
B35: ING-1 Fab, light chain R101V (Fab, V domains shown)
VH: B11 VH
VL: B11 VL with L35I, R101V
notes: Fab in periplasmic extract
B36: ING-1 Fab, light chain S57G (Fab, V domains shown)
VH: B11 VH
VL: B11 VL with L35I, S57G
notes: Fab in periplasmic extract
B37: ING-1 Fab, light chain Y37A (Fab, V domains shown)
VH: B11 VH
VL: B11 VL with L35I, Y37A
notes: Fab in periplasmic extract
B38: ING-1 Fab, light chain Y37I (Fab, V domains shown)
VH: B11 VH
VL: B11 VL with L35I, Y37I
notes: Fab in periplasmic extract
B39: ING-1 Fab, light chain Y37T (Fab, V domains shown)
VH: B11 VH
VL: B11 VL with L35I, Y37T
notes: Fab in periplasmic extract
B40: ING-1 Fab, light chain Y37V (Fab, V domains shown)
VH: B11 VH
VL: B11 VL with L35I, Y37V
notes: Fab in periplasmic extract
B41: ING-1 Fab, light chain Y54A (Fab, V domains shown)
VH: B11 VH
VL: B11 VL with L35I, Y54A
notes: Fab in periplasmic extract
B42: ING-1 Fab, light chain Y54I (Fab, V domains shown)
VH: B11 VH
VL: B11 VL with L35I, Y54I
notes: Fab in periplasmic extract

Experiments:
[1] = biological target: T1, IL-1β (UniProt P01584 117-269); assay: Biacore, Fab periplasmic extract; -1 = no binding by the table's footnote
T1 construct: Antigen of XPA23

[2] = biological target: T2, Ep-CAM (UniProt P16422 24-265, limits assumed); assay: Biacore, Fab periplasmic extract
T2 construct: Immobilised on the Biacore chip; construct not described
T2 sequence (looked up): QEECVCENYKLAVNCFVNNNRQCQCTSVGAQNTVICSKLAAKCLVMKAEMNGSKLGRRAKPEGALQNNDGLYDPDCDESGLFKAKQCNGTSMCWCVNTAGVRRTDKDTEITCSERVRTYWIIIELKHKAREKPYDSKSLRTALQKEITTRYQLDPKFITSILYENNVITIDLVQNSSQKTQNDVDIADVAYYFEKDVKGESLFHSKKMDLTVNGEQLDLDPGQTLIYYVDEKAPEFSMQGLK

Binder | fold difference in affinity vs original ING-1 [2] | binding result [2] | other results
B1 |  |  | binding result [1]: no binding
B2 |  |  | binding result [1]: no binding
B3 |  |  | binding result [1]: no binding
B4 |  |  | binding result [1]: no binding
B5 |  |  | binding result [1]: no binding
B6 |  |  | binding result [1]: no binding
B7 |  |  | binding result [1]: no binding
B8 |  |  | binding result [1]: no binding
B9 |  |  | binding result [1]: no binding
B10 |  |  | binding result [1]: no binding
B11 | 0.6 fold |  | 
B12 | 0.7 fold |  | 
B13 |  | no binding | 
B14 |  | no binding | 
B15 |  | no binding | 
B16 | 0.5 fold |  | 
B17 |  | no binding | 
B18 | 0.02 fold |  | 
B19 | 0.01 fold |  | 
B20 | 0.09 fold |  | 
B21 | 0.8 fold |  | 

Binder | fold difference in affinity vs original ING-1 [2] | binding result [2] | other results
B22 | 0.8 fold |  | 
B23 |  | no binding | 
B24 | 0.6 fold |  | 
B25 |  | no binding | 
B26 | 0.05 fold |  | 
B27 | 0.03 fold |  | 
B28 | 0.08 fold |  | 
B29 | 0.7 fold |  | 
B30 |  | no binding | 
B31 |  | no binding | 
B32 |  | no binding | 
B33 |  | no binding | 
B34 |  | no binding | 
B35 |  | no binding | 
B36 |  | no binding | 
B37 | 0.04 fold |  | 
B38 | 0.9 fold |  | 
B39 |  | no binding | 
B40 |  | no binding | 
B41 | 0.08 fold |  | 
B42 |  | no binding | 

— US20110118131A1 (published 2011)
